What was measured:
[1] = molecular target: T1, IL-1R (Homo sapiens, UniProt P14778); assay: Smoke plus HRV virus induced IL-8 release in BEAS-2B cells; assay type: cell-based; conditions: 20% smoked medium then HRV, different anakinra concentrations
T1 sequence (P14778 18-569): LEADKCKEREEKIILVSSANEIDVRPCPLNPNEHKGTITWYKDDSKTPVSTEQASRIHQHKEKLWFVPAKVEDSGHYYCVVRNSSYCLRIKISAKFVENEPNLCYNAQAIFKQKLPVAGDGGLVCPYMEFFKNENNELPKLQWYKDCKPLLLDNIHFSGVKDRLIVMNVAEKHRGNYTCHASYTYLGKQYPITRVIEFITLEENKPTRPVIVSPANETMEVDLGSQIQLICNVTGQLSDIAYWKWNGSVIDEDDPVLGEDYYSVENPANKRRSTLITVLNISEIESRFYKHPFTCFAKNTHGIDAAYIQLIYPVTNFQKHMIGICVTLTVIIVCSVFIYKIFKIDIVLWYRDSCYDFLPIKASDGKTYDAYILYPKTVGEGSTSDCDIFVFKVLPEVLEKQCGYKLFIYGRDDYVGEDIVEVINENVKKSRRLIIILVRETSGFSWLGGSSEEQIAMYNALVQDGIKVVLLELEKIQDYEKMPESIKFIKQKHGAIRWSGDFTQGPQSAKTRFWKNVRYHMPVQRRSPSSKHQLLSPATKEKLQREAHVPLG
Procedure: (§1) The inflammatory response of epithelial cell in vitro was measured in response to smoke conditioned medium, or smoke conditioned medium and virus. The smoke conditioned medium was generated by bubbling cigarette smoke through tissue culture (TC) medium, and is referred to later in this example as ‘smoke’ or ‘smoke treatment’ of the cells. One cigarette with the filter removed bubbled through 25 mL medium is equal to 100% smoked medium. Cigarette smoke treated medium was titrated for IL-8 release and cell confluence on BEAS-2b cells. 20% smoked medium was used for all experiments as it induced pro-inflammatory cytokine release without significant cell death.
(§2) To examine the role of IL-1R in smoke and virus induced inflammation, cells were first smoke treated with a pre-treatment of IL-1R antagonist, and then as required, infected with HRV virus with another pre-treatment of IL-1R antagonist, anakinra. (FIGS. 10A and 10C).
(§3) A lit cigarette (no filter) was connected by tubing to a falcon tube (50 ml capacity) containing tissue culture medium which was supported in a glass flask. A peristaltic pump drew the smoke through the tubing and into the tissue culture medium. The waste smoke was drawn into a beaker of detergent. The whole procedure was performed within a fume cupboard to protect the operator and other users of the lab. The procedure was therefore not sterile. […]

[2] = molecular target: T2, IL-1R1 (Mus musculus, UniProt P13504); assay: Inhaled LPS model of acute lung inflammation (BAL cells); assay type: in vivo; conditions: Balb/c mice; anakinra by ALZET osmotic pump from 48 hours before inhaled LPS; BAL 48 hours after challenge; vs control LPS treated mice; P<0.001
T2 construct: from tissue; host or cells: living Balb/c mice (lung / systemic), read-out BAL cell counts
T2 sequence (P13504 20-576): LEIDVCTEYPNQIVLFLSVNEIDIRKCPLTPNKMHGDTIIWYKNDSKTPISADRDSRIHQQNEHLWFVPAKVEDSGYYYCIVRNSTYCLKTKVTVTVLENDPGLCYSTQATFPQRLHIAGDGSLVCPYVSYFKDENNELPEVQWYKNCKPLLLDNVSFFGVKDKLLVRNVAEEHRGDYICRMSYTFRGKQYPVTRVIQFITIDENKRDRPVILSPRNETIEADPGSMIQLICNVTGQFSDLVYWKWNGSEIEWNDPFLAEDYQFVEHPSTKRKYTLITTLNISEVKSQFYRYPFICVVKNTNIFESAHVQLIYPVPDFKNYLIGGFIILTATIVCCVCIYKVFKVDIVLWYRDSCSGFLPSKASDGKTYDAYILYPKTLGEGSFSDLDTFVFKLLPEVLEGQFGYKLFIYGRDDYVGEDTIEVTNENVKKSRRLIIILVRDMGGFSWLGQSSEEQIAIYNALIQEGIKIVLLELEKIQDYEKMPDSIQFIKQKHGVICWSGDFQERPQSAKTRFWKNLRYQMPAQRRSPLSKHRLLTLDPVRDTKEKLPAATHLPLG
Excerpt: Lipopolysaccharide (LPS) is a component of bacterial cell walls of gram negative bacteria. […] The effect of an IL-1R1 antagonist, anakinra, was examined in a mouse model of LPS mediated inflammatory cell influx into the lung. Anakinra inhibited LPS mediated inflammatory cell influx as measured by BAL total cells into the lung by 47% compared to control LPS treated mice (P<0.001) (FIG. 7).
Anakinra was delivered using an ALZET osmotic pump as described for acute smoke model, and was also administered to the mice 48 hours before the LPS administration. Mice were adult female Balb/c mice.
The mice were placed in a semi-open exposure inhalation box (max 10 mice) and were exposed once to aerosolised LPS—total inhalation session time 12 minutes. P. aeriginosa LPS was used at a concentration of 5 mg/ml and was aerosolised using a nebuliser (such as a PariStar Jet Star nebuliser), filled with 5 ml volume and flow from the nebuliser was 5 l/min (Pressure=2 bar). The control groups received the same procedure but with PBS. […] The BAL was then centrifuged—the cell pellet was analysed using standard automated cell counting and differential cell counting. […] The significance of differences between groups was calculated using Student's T test with one-tailed distribution and two-sample unequal variance. […]

[3] = molecular target: T3, IL-1R1 (Homo sapiens, UniProt P14778); assay: HRV14-induced IL-8 release in BEAS-2b/H292 epithelial cells; conditions: BEAS-2b/H292 cells; PEG purified HRV14; anakinra 25 nM (FIG. 8B)
T3 sequence (P14778 18-569): T1 sequence (P14778 18-569)

[4] = molecular target: T2, IL-1R1; assay: Acute tobacco smoke model of lung inflammation (BAL cells); assay type: in vivo; conditions: Balb/c mice; smoke twice daily; BAL day 5; 35F5/MAB005 15 mg/kg i.p. once daily; anakinra 48 mg/kg/day s.c. by ALZET pump
Excerpt: The antibody 35F5 is a monoclonal antibody which binds to mouse IL-1R1 and prevents the binding of both IL-1beta and IL-1alpha to the receptor IL-1R1Anakinra antagonises the effects of both IL-1beta and IL-1alpha. […] The data shown in this example confirms that inhibition of IL-1R1 by 35F5 decreases inflammation in an acute model of murine lung inflammation, induced by a stimulus relevant to COPD such as smoke. This is consistent with previous observations in the public domain, and with other studies using IL-1Ra (anakinra; IL-1 receptor antagonist). In this mouse model, cigarette smoke causes significant increases in neutrophil BAL cell numbers after 4 days of smoke inhalation. To investigate the effects of IL-1R1 pathway inhibition on the acute inflammatory response to cigarette smoke inhalation, Balb/c mice were exposed to cigarette smoke twice daily (for 50 minutes) […] and dosed intraperitoneally once daily with either 35F5, isotype control rat IgG1 (MAB005), or saline, starting 48 hours before the first smoke exposure and continuing for 4 days. On Day 5, animals were terminated and BAL was performed. An additional treatment arm was included in which animals were exposed to cigarette smoke as above but dosed sub-cutaneously (SC) continuously with anakinra using infusion pumps (ALZET) starting dosing 48 hours prior to the first smoke exposure. […]

[5] = molecular target: T1, IL-1R; assay: Smoke conditioned medium induced IL-8 release in BEAS-2B cells; assay type: cell-based; conditions: 20% smoked medium, 24 hours
Procedure: as §1, §2, §3

[6] = molecular target: T2, IL-1R1; assay: IL-1beta-induced neutrophil mediated inflammation in the mouse lung (BAL); assay type: in vivo; conditions: Balb/c mice; anakinra subcutaneously 1 hour before IL-1beta 5 ng/50 μl intratracheally; BAL after 4 hours; vs control IL-1 treated animals
Procedure: As noted above, the effect of IL-1R1 antagonist treatment on an IL-1beta-induced neutrophil mediated inflammation in the mouse lung was also examined (FIG. 1B). Anakinra (KINERET™) was dosed subcutaneously one hour before a treatment of IL-1beta of 5 ng/50 μl. After four hours, cell counts were obtained by BAL. Anakinra reduced the cell count by 71% compared to control IL-1 treated animals.
Mice were adult Balb/c females. Anakinra was dosed subcutaneously one hour before IL-1beta was administered intratracheally to the mouse lung using a dose of 5 ng in 50 ul. After 4 hours, the lungs of the mouse were lavaged, essentially as for the acute smoke model (example 2), and total cells and differential cell counts performed.

anakinra
combined smoke and virus IL-8 response [1]: Concentration dependent and complete inhibition | inhibition of LPS mediated inflammatory cell influx (BAL total cells) [2]: 47% | IL-8 levels after HRV14 infection [3]: reduced | tobacco smoke-induced acute inflammatory cell infiltration in BAL [4]: significantly inhibited | smoke-induced IL-8 response [5]: dose dependent effect | smoke-induced IL-8 response ([5]; listed as Anakinra): partial inhibition | inhibition of IL-1beta-induced increase of neutrophils / cell count in BAL [6]: 71%
